Laboratory results taken from the supplement of paper PMC11246515.
± gives the standard deviation of the averaged measurements.

Experiment: total protein half-life in vivo (active degradation + dilution); higher = more stable protein
[1] = E. coli NCM3722 delta-clpP delta-lon delta-hslV, growth: N-lim chemostat, doubling time 6 h
[2] = wild type E. coli NCM3722, growth: C-lim chemostat, doubling time 3 h
[3] = wild type E. coli NCM3722, growth: C-lim chemostat, doubling time 6 h
[4] = wild type E. coli NCM3722, growth: C-lim chemostat, doubling time 12 h
[5] = wild type E. coli NCM3722, growth: P-lim chemostat, doubling time 6 h
[6] = wild type E. coli NCM3722, growth: P-lim chemostat, doubling time 12 h
[7] = E. coli NCM3722 delta-clpP, growth: N-lim chemostat, doubling time 6 h
[8] = E. coli NCM3722 delta-hslV, growth: N-lim chemostat, doubling time 6 h
[9] = E. coli NCM3722 delta-lon, growth: N-lim chemostat, doubling time 6 h
[10] = E. coli NCM3722 delta-smpB, growth: N-lim chemostat, doubling time 6 h
[11] = wild type E. coli NCM3722, growth: N-lim chemostat, doubling time 6 h
[12] = wild type E. coli NCM3722, growth: N-lim chemostat, doubling time 12 h

| Sequence | total protein half-life in vivo [1] | total protein half-life in vivo [2] | total protein half-life in vivo [3] | total protein half-life in vivo [4] | total protein half-life in vivo [5] | total protein half-life in vivo [6] | total protein half-life in vivo [7] | total protein half-life in vivo [8] | total protein half-life in vivo [9] | total protein half-life in vivo [10] | total protein half-life in vivo [11] | total protein half-life in vivo [12] |
| --- | --- | --- | --- | --- | --- | --- | --- | --- | --- | --- | --- | --- |
| MTEPHVAVLSQVQQFLDRQHGLYIDGRPGPAQSEKRLAIFDPATGQEIASTADANEADVDNAVMSAWRAFVSRRWAGRLPAERERILLRFADLVEQHSEELAQLETLEQGKSIAISRAFEVGCTLNWMRYTAGLTTKIAGKTLDLSIPLPQGARYQAWTRKEPVGVVAGIVPWNFPLMIGMWKVMPALAAGCSIVIKPSETTPLTMLRVAELASEAGIPDGVFNVVTGSGAVCGAALTSHPHVAKISFTGSTATGKGIARTAADHLTRVTLELGGKNPAIVLKDADPQWVIEGLMTGSFLNQGQVCAASSRIYIEAPLFDTLVSGFEQAVKSLQVGPGMSPVAQINPLVSRAHCDKVCSFLDDAQAQQAELIRGSNGPAGEGYYVAPTLVVNPDAKLRLTREEVFGPVVNLVRVADGEEALQLANDTEYGLTASVWTQNLSQALEYSDRLQAGTVWVNSHTLIDANLPFGGMKQSGTGRDFGPDWLDGWCETKSVCVRY | 4.33 h | 3.12 ± 0.38 h | 5.23 ± 0.96 h | 8.67 ± 0.33 h | 5.34 ± 0.17 h | 10.3 ± 0.53 h |  |  |  |  |  |  |
| MKILIVEDDTLLLQGLILAAQTEGYACDSVTTARMAEQSLEAGHYSLVVLDLGLPDEDGLHFLARIRQKKYTLPVLILTARDTLTDKIAGLDVGADDYLVKPFALEELHARIRALLRRHNNQGESELIVGNLTLNMGRRQVWMGGEELILTPKEYALLSRLMLKAGSPVHREILYNDIYNWDNEPSTNTLEVHIHNLRDKVGKARIRTVRGFGYMLVANEEN | 6.35 ± 0.76 h |  | 5.33 ± 0.18 h | 9.36 ± 0.56 h | 4.89 ± 0.26 h | 9.22 ± 0.027 h | 5.04 ± 0.91 h | 4.7 ± 0.14 h | 4.71 ± 0.34 h | 3.93 ± 0.24 h | 5.55 ± 1.2 h | 7.56 ± 0.27 h |
| MQTQKPTLELLTCEGAYRDNPTALFHQLCGDRPATLLLESADIDSKDDLKSLLLVDSALRITALGDTVTIQALSGNGEALLALLDNALPAGVESEQSPNCRVLRFPPVSPLLDEDARLCSLSVFDAFRLLQNLLNVPKEEREAMFFGGLFSYDLVAGFEDLPQLSAENNCPDFCFYLAETLMVIDHQKKSTRIQASLFAPNEEEKQRLTARLNELRQQLTEAAPPLPVVSVPHMRCECNQSDEEFGGVVRLLQKAIRAGEIFQVVPSRRFSLPCPSPLAAYYVLKKSNPSPYMFFMQDNDFTLFGASPESSLKYDATSRQIEIYPIAGTRPRGRRADGSLDRDLDSRIELEMRTDHKELSEHLMLVDLARNDLARICTPGSRYVADLTKVDRYSYVMHLVSRVVGELRHDLDALHAYRACMNMGTLSGAPKVRAMQLIAEAEGRRRGSYGGAVGYFTAHGDLDTCIVIRSALVENGIATVQAGAGVVLDSVPQSEADETRNKARAVLRAIATAHHAQETF | 4.74 ± 0.93 h | 2.93 ± 0.52 h | 5.7 ± 0.12 h | 9.57 ± 0.22 h | 6.71 ± 0.33 h | 10.7 ± 1.7 h | 3.4 ± 0.18 h | 3.1 ± 0.083 h | 3.6 ± 0.24 h | 3.3 ± 0.17 h | 3.25 ± 0.13 h | 5.08 ± 0.34 h |
| MNTVCTHCQAINRIPDDRIEDAAKCGRCGHDLFDGEVINATGETLDKLLKDDLPVVIDFWAPWCGPCRNFAPIFEDVAQERSGKVRFVKVNTEAERELSSRFGIRSIPTIMIFKNGQVVDMLNGAVPKAPFDSWLNESL [P0AGG4] | 5.02 ± 0.31 h | 1.6 ± 0.2 h | 3.09 ± 0.67 h | 5.03 ± 1.5 h | 2.24 ± 0.53 h | 4.54 ± 0.14 h | 2.89 ± 0.54 h | 2.37 ± 0.6 h | 5.32 ± 0.43 h | 2.48 ± 1.3 h | 2.26 ± 0.083 h | 3.44 ± 0.91 h |
| MHCPFCFAVDTKVIDSRLVGEGSSVRRRRQCLVCNERFTTFEVAELVMPRVVKSNDVREPFNEEKLRSGMLRALEKRPVSSDDVEMAINHIKSQLRATGEREVPSKMIGNLVMEQLKKLDKVAYIRFASVYRSFEDIKEFGEEIARLED [P0A8D0] | 6.05 ± 0.84 h | 2.98 ± 1.4 h | 4.6 ± 0.41 h | 9.06 ± 0.4 h | 4.677 ± 0.038 h | 10.76 ± 0.082 h | 5.91 ± 0.41 h | 4.362 ± 0.017 h |  | 4 ± 0.71 h | 4.15 ± 0.58 h | 6.44 ± 0.094 h |
| MSELSQLSPQPLWDIFAKICSIPHPSYHEEQLAEYIVGWAKEKGFHVERDQVGNILIRKPATAGMENRKPVVLQAHLDMVPQKNNDTVHDFTKDPIQPYIDGEWVKARGTTLGADNGIGMASALAVLADENVVHGPLEVLLTMTEEAGMDGAFGLQGNWLQADILINTDSEEEGEIYMGCAGGIDFTSNLHLDREAVPAGFETFKLTLKGLKGGHSGGEIHVGLGNANKLLVRFLAGHAEELDLRLIDFNGGTLRNAIPREAFATIAVAADKVDVLKSLVNTYQEILKNELAEKEKNLALLLDSVANDKAALIAKSRDTFIRLLNATPNGVIRNSDVAKGVVETSLNVGVVTMTDNNVEIHCLIRSLIDSGKDYVVSMLDSLGKLAGAKTEAKGAYPGWQPDANSPVMHLVRETYQRLFNKTPNIQIIHAGLECGLFKKPYPEMDMVSIGPTITGPHSPDEQVHIESVGHYWTLLTELLKEIPAK | 4.741 ± 0.0055 h | 3.09 ± 0.14 h | 5.61 ± 0.4 h | 11.1 ± 0.36 h | 5.88 ± 0.37 h | 13.7 ± 3.1 h | 4.94 ± 0.75 h | 5.28 ± 0.26 h | 4.816 ± 0.018 h | 4.53 ± 0.12 h | 4.81 ± 0.18 h | 8.14 ± 0.0087 h |
